Measured values from the Immune Epitope Database (IEDB).

Assays:
Experiment in all cases: IEDB peptide-MHC binding, purified MHC/direct/fluorescence; filed as Kd, often an IC50 or EC50 that approximates it; ≥ and ≤ were set here for values at or beyond the usual limits of such assays
Conditions in all cases: source organism: Homo sapiens
HLA-A*02:01 = target: HLA-A*02:01
HLA-A*24:02 = target: HLA-A*24:02
HLA-B*08:01 = target: HLA-B*08:01
HLA-B*13:02 = target: HLA-B*13:02
HLA-C*01:02 = target: HLA-C*01:02
HLA-C*07:01 = target: HLA-C*07:01

LLMEKEDYHSL
Kd (HLA-A*02:01): 100 nM

QLPDSVNQL
Kd (HLA-A*02:01): 100 nM

RSLEYLPLRF
Kd (HLA-A*24:02): ≥ 10000 nM

YIHGGGWAL
Kd (HLA-B*08:01): 100 nM

ELPKYGVKV
Kd (HLA-B*13:02): ≥ 10000 nM

FLPWHRLFL
Kd (HLA-C*01:02): 100 nM

SYLEQASRI
Kd (HLA-A*24:02): 1000 nM

KRPTPTFHS
Kd (HLA-C*07:01): 1000 nM

HLIDPNTLQV
Kd (HLA-A*02:01): 10 nM

DMKARQEAL
Kd (HLA-B*08:01): 100 nM

FLHEKQHEL
Kd (HLA-B*08:01): 100 nM
